Results on one molecule are retold here after patent publication US20060275823A1.

The target of the experiment is GG (GST-ICS linker-GFP model substrate for ICE) [GST: P08515]. Kind of experiment: cell-based or functional assay.

As for KARKEAELAAATAEQ [LEPB], the IC50 of inhibition of the cleavage of GG by ICE was 50 to 100 µM.
